In PMC10322840:

Tests used:
[1] = biological target: Paracentrotus lividus RAF, 6 MYC tags (Paracentrotus lividus); experiment: co-IP; lysates of co-transfected HEK293T cells (200 ul at 0.5 mg/ml); mouse anti-myc 9E10 overnight at 4 °C, Dynabeads Pan mouse IgG 2 h; five washes in 50 mM Tris HCl pH 7.5, 150 mM NaCl, 10% glycerol, 0.2% Triton X100, 1 mM EDTA; blots with rabbit anti-HA and anti-Myc
[2] = biological target: Paracentrotus lividus RAF, 6 MYC tags; experiment: co-immunoprecipitation (IP anti-Myc of Pl. RAF, blot quantified); settings: parent: 1; read off a plot

Paracentrotus lividus RAF, 6 MYC tags (Paracentrotus lividus), sequence (main, as listed by the source): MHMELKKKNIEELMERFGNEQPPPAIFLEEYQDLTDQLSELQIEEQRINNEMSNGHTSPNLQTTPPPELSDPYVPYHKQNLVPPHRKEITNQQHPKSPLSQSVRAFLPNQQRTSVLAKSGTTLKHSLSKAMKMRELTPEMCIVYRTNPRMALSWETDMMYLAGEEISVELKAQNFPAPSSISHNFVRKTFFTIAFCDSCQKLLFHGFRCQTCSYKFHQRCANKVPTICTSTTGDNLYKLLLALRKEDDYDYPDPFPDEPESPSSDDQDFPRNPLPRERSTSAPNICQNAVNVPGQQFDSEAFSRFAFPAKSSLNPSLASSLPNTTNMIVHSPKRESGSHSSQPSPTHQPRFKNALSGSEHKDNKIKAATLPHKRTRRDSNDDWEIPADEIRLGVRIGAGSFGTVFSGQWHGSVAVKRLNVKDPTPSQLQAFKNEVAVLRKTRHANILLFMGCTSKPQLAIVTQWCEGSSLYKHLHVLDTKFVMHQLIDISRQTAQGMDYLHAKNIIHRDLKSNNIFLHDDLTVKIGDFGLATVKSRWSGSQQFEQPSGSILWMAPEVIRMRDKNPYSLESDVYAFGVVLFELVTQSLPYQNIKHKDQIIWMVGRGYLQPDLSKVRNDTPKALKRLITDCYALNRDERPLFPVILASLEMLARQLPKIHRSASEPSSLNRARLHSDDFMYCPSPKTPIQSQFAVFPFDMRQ

| fold change of RAF co-immunoprecipitated, against wild-type KSR3 [1] [fold] | ratio to parent (arbitrary units) [2] | Substance |
| --- | --- | --- |
| 1.5 |  | Paracentrotus lividus KSR3 S361E (natural protein) |
|  | 0.46 | Paracentrotus lividus KSR3, wild type, 3HA-tagged S361E; R364H |
